* marks the point of attachment. MTSL = spin label, CC1(C)C=C(CS*)C(C)(C)N1[O]
T1: UL34^(174–194) peptide, spin-labelled at C182 (herpes simplex virus 1 (HSV-1), UniProt P10218 174-194, N-terminally acetylated; C-terminally amidated; MTSL spin label on the native cysteine C182)
T1 construct: also called UL34 MPR peptide; C182_(34); source: synthetic peptide, bought: Peptide 2.0
T1 peptide: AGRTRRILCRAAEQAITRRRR

T2: UL34^(174–194) peptide, unlabelled (herpes simplex virus 1 (HSV-1), UniProt P10218 174-194, N-terminally acetylated; C-terminally amidated)
T2 construct: also called UL34 MPR peptide; source: synthetic peptide, bought: Peptide 2.0
T2 peptide: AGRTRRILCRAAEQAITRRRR


Legend:
[1] = target: T1, UL34^(174–194) peptide, spin-labelled …; experiment: DEER (double electron-electron resonance) spectroscopy; MTSL spin-labelled peptides, approximately 50 μM peptide or 1:1 peptide mixture with POPC/POPS/POPA 3:1:1 SUVs, 1:200 P/L ratio, incubated 10 min at 25°C, frozen, measured at 60 K; settings: both partners purified
[2] = target: T2, UL34^(174–194) peptide, unlabelled; experiment: cross-linking; SM(PEG)6 at 50-fold molar excess, 30 min at room temperature in PBS, with 1 mM POPC/POPS/POPA 3:1:1 SUVs; 50 μM peptide, or 25 μM each in mixtures; 16% Tris-tricine SDS-PAGE, Coomassie; settings: both partners purified

Row | Binder | binding result [1] | binding result [2]
1 | Ac-RKSLPPHARKC(MTSL)-NH2 (SMILES CC(=O)N[C@@H](CCCNC(=N)N)C(=O)N[C@@H](CCCCN)C(=O)N[C@@H](CO)C(=O)N[C@@H](CC(C)C)C(=O)N1CCC[C@H]1C(=O)N1CCC[C@H]1C(=O)N[C@@H](Cc1c[nH]cn1)C(=O)N[C@@H](C)C(=O)N[C@@H](CCCNC(=N)N)C(=O)N[C@@H](CCCCN)C(=O)N[C@@H](CSSCC1=CC(C)(C)N([O])C1(C)C)C(N)=O, also called mini-MPR with C-terminal cysteine; C51_(31); source: synthetic peptide, bought: Peptide 2.0) [UL31^(41–C51) peptide, spin-labelled] | binds | –
2 | Ac-C(MTSL)RRSRSSAAGGTLGVVRRASRK-NH2 (also called C21_(31); source: synthetic peptide, bought: Peptide 2.0) [UL31^(C21–42) peptide, spin-labelled] | binds | –
3 | Ac-C(MTSL)RKSLPPHARK-NH2 (SMILES CC(=O)N[C@@H](CSSCC1=CC(C)(C)N([O])C1(C)C)C(=O)N[C@@H](CCCNC(=N)N)C(=O)N[C@@H](CCCCN)C(=O)N[C@@H](CO)C(=O)N[C@@H](CC(C)C)C(=O)N1CCC[C@H]1C(=O)N1CCC[C@H]1C(=O)N[C@@H](Cc1c[nH]cn1)C(=O)N[C@@H](C)C(=O)N[C@@H](CCCNC(=N)N)C(=O)N[C@@H](CCCCN)C(N)=O, also called mini-MPR with N-terminal cysteine; C40_(31); source: synthetic peptide, bought: Peptide 2.0) [UL31^(C40–50) peptide, spin-labelled] | binds | –
4 | Ac-RKSLPPHARK-NH2 (also called UL31 mini-MPR peptide; source: synthetic peptide, bought: Peptide 2.0) [UL31^(41–50) peptide] | – | binds
5 | Ac-RRSRSSAAGGTLGVVRRASRKC(MTSL)-NH2 (also called C43_(31); source: synthetic peptide, bought: Peptide 2.0) [UL31^(22–C43) peptide, spin-labelled] | binds | –
6 | Ac-RRSRSSAAGGTLGVVRRASRK-NH2 (source: synthetic peptide, bought: Peptide 2.0) [UL31^(22–42) peptide] | – | binds
